These results are taken from patent US20130156764A1, “NEUTRALIZATION OF FLT3 LIGAND AS A LEUKEMIA THERAPY” (The Johns Hopkins University, priority 2010, published 2013).

For assay [1], the system named is MAPK phosphorylation. Put plainly: FL stimulation, MAPK phosphorylation in primary AML blasts with homozygous FLT3/ITD. The format is cell-based, human. The settings on record: 100 ng/mL FL. The procedure:
To study whether further activation of mutant FLT3 receptors in response to FL also occurs in primary cells, experiments were carried on primary AML blasts expressing homozygous FLT3/ITD mutations (i.e., no detectable wild type FLT3 by PCR). The blasts were stimulated with 100 ng/mL FL. […] The survival of AML blasts was assessed by culturing them in complete medium with and without FL for 4 days.

Assay [2] relates to TF1/ITD and TF1/TKD cells. The assay is described as follows: Apoptosis (Annexin V/7AAD) and survival of TF1/ITD and TF1/TKD cells with FL. Type of assay: cell-based. The settings on record: for survival (viable cell numbers): serum free medium; for apoptotic population: serum-free, 48 hours, presence of FL. The procedure: Evaluation of apoptosis was performed by annexin V/7-AAD staining according to the recommendations of the manufacturer (Becton Dickinson, San Jose, Calif.). After serum starvation, 5×10^5 cells were washed with cold PBS and re-suspended in 100 μL of binding buffer. Following incubation with 5 μL of annexin V-PE and 5 μL of 7-AAD in the dark for 15 minutes at room temperature, cells were analyzed by flow cytometry (FACSort, Becton Dickinson) with Cell Quest software (Becton Dickinson). Compensation was performed with samples stained with either annexin V-PE or 7-AAD alone.
2×10^4 cells in 100 μl serum-free medium were plated into triplicate wells of 96-well plates. Survival was assessed by MTT assay (Roche, Indianapolis, Ind.) and viable cell number counting by trypan blue (GIBCO, Rockville, Md.) exclusion according to the manufacturer's instructions.
(§1) The possibility of further activation of FLT3 mutant receptors by exogenous FL was also tested in cell lines in which FL autocrine, paracrine, or intracrine stimulation of FLT3 receptor might exist. […] TF1 cells expressing FLT3 mutant receptors were starved for 16 hours in serum-free medium and washed once with PBS to deplete soluble FL (either produced by the cells or contained in the serum). These cells were then stimulated with exogenous FL for 15 minutes. More than 2-fold enhancement of FLT3 phosphorylation was detected in both TF1/ITD and TF1/TKD cell lines (FIG. 12A). […] To assess the functional effect of exogenous FL, TF1/ITD and TF1/TKD cells were cultured in serum-free medium in the absence and presence of FL for 48 hours. Apoptosis was assessed by Annexin V and 7AAD staining followed by FACS analysis. […] There was no change of cell cycle status in response to FL in these cells (data not shown).

Assay [3] deals with FLT3/ITD and FLT3/TKD in TF1 cells. The assay is described as follows: FL stimulation, FLT3 phosphorylation in TF1/ITD and TF1/TKD cells. The format is cell-based. The note with it: FL 15 minutes after serum starvation. The procedure: (§2) TF1 and BaF3 cells were transfected with pCINeo constructs containing either FLT3/ITD or FLT3/TKD mutation by electroporation (Bio-Rad, Hercules, Calif.). Stable transfectants were then selected by limiting dilution in 96-well plates with 1 mg/mL G418 (Invitrogen, Carlsbad, Calif.).
as §1

Assay [4] relates to primary AML blast samples harboring a FLT3/ITD mutation. Put plainly: MTT assay in primary AML blast samples with FLT3/ITD mutation with FL. The format is cell-based, human. The note with it: addition of exogenous FL, all 3 samples. The text has this:
Leukemia cell specimens were provided by the Sidney Kimmel Cancer Center at Johns Hopkins Tumor and Cell Procurement Bank. All patients gave informed consent according to the Declaration of Helsinki. The specimens were obtained by Ficoll purifying mononuclear cells from the peripheral blood patients with FLT3/ITD AML. The mononuclear cells were aliquoted and stored frozen in liquid nitrogen in bovine serum with 10% DMSO for repeated use. Prior to each use, aliquots of these blasts were thawed rapidly into warm culture medium, incubated for 12 hours, and then recentrifuged over Ficoll to eliminate cells dying from the freeze-thaw process. Using this method, blasts were obtained that maintained satisfactory viability (as determined by Trypan blue exclusion) and responsiveness to cytotoxic agents in culture over 72 hours.
Cytotoxicity was assessed using an MTT (Dimethyl-thiazol diphenyl tetrazolium bromide) assay. In selected cases, an Annexin-V binding apoptosis assay was also used to confirm that the cytotoxic effect observed (or lack thereof) was associated with an equivalent degree of apoptosis. MTT (Roche, Indianapolis, Ind.) and Annexin V (Pharmingen, San Diego, Calif.) assays were performed as described previously.
In three primary samples from AML patients with FLT3/ITD mutations (FIG. 8), a similar pattern of response to FL and FLT3 inhibition was observed.
On the technique in general: Formazan colour is commonly taken as a measure of viable cells.

Assay [5] has as its system FLT3/ITD and FLT3/TKD in BaF3 cells. The assay is described as follows: FL stimulation, FLT3 phosphorylation in BaF3/ITD and BaF3/TKD cells. The format is cell-based. The procedure: as §2
(§3) BaF3 is another cell line lacking expression of endogenous FLT3. BaF3 cells transfected with mutant forms of FLT3 were starved in serum-free medium for 16 hours and washed with PBS before FL stimulation. […] Changes of other FLT3 downstream signals were not observed. An MTT survival assay was performed in BaF3/ITD and BaF3/TKD cells cultured in serum-free medium in the presence and absence of FL for 4 days. […] The effect was also confirmed by counting viable cell numbers by trypan blue exclusion (FIG. 13C, P<0.05). These findings indicate that FL stimulation prolongs the survival of cells expressing FLT3 mutants.

Assay [6] concerns AKT and MAPK phosphorylation. Put plainly: FL stimulation, downstream signaling immunoblot in BaF3/ITD and BaF3/TKD cells. The format is cell-based. The method, then:
as §2, §3
(In western blotting, separated proteins are transferred to a membrane and probed.)

B1: FL: Recombinant human FL (fms-related tyrosine kinase ligand) purchased from PeproTech; SEQ ID NO: 1 (protein, listed as Homo sapiens)
chain: MTVLAPAWSPTTYLLLLLLLSSGLSGTQDCSFQHSPISSDFAVKIRELSDYLLQDYPVTVASNLQDEELCGGLWRLVLAQRWMERLKTVAGSKMQGLLERVNTEIHFVTKCAFQPPPSCLRFVQTNISRLLQETSEQLVALKPWITRQNFSRCLELQCQPDSSTLPPPWSPRPLEATAPTAPQPPLLLLLLLPVGLLLLAAAWCLHWQRTRRRTPRPGEQVPPVPSPQDLLLVEH
For the molecule B1, in assay [1], the “samples with increased MAPK phosphorylation” value is listed as “two out of four samples”. Besides, the “cell cycle status in response to FL” value in assay [2] (TF1/ITD and TF1/TKD) is “no change”. For the same molecule, the results for the “survival (viable cell numbers)” value in assay [2] (TF1/ITD) and in assay [2] (TF1/TKD) were “increased the survival” and “no significant difference”, respectively. Also, the apoptotic population is reported as 49.54% in assay [2] (TF1/ITD) and 31.63% in assay [2] (TF1/TKD). For the same molecule, in assay [3], the “enhancement of FLT3 phosphorylation” value was “More than 2 fold”. Besides, the “metabolic activity of the sample in culture medium” value in assay [4] is “increased”. Moreover, the FLT3 phosphorylation result in assay [5] was “increased FLT3 phosphorylation”. Besides, the results for the “increase of phosphorylation of AKT” value in assay [6] (BaF3/ITD) and in assay [6] (BaF3/TKD) were 1.3 fold and 2.2 fold, respectively. For the same molecule, the MAPK phosphorylation result in assay [6] (BaF3/ITD and BaF3/TKD) was “increase of MAPK phosphorylation”.
